1 molecule from patent US20230012273A1 (Boehringer Ingelheim, published 2023) can be followed below.

As usually defined, the Kd is the equilibrium constant for the complex coming apart.

In test [1] the target is T1, full-length human SIRPγ (NP_061026.2) on cells (human, UniProt Q9P1W8 29-387).
T1 construct: on CHO and Expi-CHO cells; endogenous on primary human CD3+ T cells; also called γ WT
The experiment in a line: flow cytometry, primary human CD3+ T cells. A digest of the protocol:
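Binding was read as median fluorescence intensity on the CD3+ gate after titrated antibody was applied to donkey-IgG-blocked human PBMCs. Incubation was 60 min on ice, followed by staining with an AF647-labelled anti-human IgG F(ab′)₂ secondary and fixation before flow analysis.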
(In flow cytometry, cells or beads pass a laser one at a time.)

For test [2], the target named is T2, human SIRPγ extracellular domain + His-tag (NP_061026.2) (human, UniProt Q9P1W8 29-360).
T2 construct: also called hSIRPγ; HuSIRPγ
T2 sequence (Q9P1W8 29-360): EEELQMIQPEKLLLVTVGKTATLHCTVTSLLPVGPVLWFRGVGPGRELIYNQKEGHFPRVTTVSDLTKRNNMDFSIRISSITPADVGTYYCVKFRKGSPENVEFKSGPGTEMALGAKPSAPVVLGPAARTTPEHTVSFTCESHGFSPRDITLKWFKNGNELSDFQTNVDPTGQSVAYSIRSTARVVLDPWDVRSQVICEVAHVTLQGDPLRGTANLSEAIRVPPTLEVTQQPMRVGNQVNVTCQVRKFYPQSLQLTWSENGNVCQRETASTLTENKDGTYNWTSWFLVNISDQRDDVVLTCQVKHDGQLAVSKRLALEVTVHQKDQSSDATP
The experiment in a line: SPR, Ab captured, ECD-His analyte. A digest of the protocol: (§1)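 Steps: chip deactivated with 1M ethanolamine HCl for 420 sec at 10 μl/min; anti-SIRPα antibody captured; two-fold serial dilutions of His-tagged SIRP extracellular domain injected 300 sec at 30 μl/min; dissociation monitored 600 sec. All in 1×HBS-EP+ running buffer.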
For orientation: In SPR one partner is held on a chip, and binding of the other changes the refractive index at the surface.

The target in test [3] is T3, human SIRPβL/SIRPβ1v3 extracellular domain + His-tag (NP_001129316.1) (human, UniProt Q5TFQ8 30-371).
T3 construct: also called hSIRPβ1v3; HuSIRPβ1v3
T3 sequence (Q5TFQ8 other isoform, or with tags, fused parts or gaps): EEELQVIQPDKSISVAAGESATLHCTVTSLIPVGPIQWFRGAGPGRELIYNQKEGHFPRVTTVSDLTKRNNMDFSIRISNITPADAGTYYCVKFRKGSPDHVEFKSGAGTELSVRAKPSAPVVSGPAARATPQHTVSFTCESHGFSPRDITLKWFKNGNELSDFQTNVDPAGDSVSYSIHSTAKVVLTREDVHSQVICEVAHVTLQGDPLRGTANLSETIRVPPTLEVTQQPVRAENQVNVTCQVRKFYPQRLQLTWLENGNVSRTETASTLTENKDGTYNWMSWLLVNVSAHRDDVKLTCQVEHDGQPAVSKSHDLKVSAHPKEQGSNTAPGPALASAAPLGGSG
The experiment in a line: SPR, Ab captured, ECD-His analyte. In a few lines:
as §1

Test [4] addresses T4, human SIRPβ1 extracellular domain + His-tag (NP_006056.2) (human, UniProt O00241 30-371).
T4 construct: also called hSIRPβ1; HuSIRPβ1
The experiment in a line: SPR, Ab captured, ECD-His analyte. In a few lines:
as §1

The target of test [5] is T5, human SIRPαV2 extracellular domain + His-tag (CAA71403.1) (human, UniProt P78324 31-373).
T5 construct: also called hSIRPαV2; HuSIRPαV2
T5 sequence (P78324 other isoform, or with tags, fused parts or gaps): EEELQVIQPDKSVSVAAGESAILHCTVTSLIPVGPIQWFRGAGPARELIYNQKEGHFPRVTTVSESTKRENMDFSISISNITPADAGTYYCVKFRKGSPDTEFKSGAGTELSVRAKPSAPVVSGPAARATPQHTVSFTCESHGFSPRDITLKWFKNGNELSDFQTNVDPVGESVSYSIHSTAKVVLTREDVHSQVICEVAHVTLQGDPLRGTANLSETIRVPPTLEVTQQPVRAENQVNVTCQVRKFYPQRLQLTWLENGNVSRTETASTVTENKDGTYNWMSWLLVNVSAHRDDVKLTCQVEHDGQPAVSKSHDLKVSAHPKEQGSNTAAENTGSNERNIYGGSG
The experiment in a line: SPR, Ab captured, ECD-His analyte. A digest of the protocol:
as §1

Test [6] addresses T6, human SIRPαV1 extracellular domain + His-tag (NP_542970.1) (human, UniProt P78324 31-373).
T6 construct: also called hSIRPαV1; HuSIRPαV1
The experiment in a line: SPR, Ab captured, ECD-His analyte. In a few lines: as §1

The target in test [7] is T7, full-length human SIRPβ1 (NP_006056.2) on cells (human, UniProt O00241 30-398).
T7 construct: on U937 SIRPα KO cells and Expi-CHO cells; also called β1 WT
T7 sequence (O00241 30-398): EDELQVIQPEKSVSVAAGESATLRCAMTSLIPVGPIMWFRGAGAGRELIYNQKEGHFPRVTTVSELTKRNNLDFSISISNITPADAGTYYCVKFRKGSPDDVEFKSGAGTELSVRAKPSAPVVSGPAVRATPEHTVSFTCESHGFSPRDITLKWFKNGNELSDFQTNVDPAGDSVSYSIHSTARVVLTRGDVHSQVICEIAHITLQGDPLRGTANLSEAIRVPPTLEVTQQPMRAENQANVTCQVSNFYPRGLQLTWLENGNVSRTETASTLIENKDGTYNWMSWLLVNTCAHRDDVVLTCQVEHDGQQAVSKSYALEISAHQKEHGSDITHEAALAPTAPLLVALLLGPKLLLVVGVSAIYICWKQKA
The experiment in a line: flow cytometry, U937 SIRPα KO cells. The protocol: Antibody binding to cells expressing full-length human SIRPβ1 (NP_006056.2) and SIRPβL (NP_001129316.1) is evaluated by flow cytometry. SIRPβ1- or SIRPβL-expressing U937^{SIRPα KO} cells are blocked with donkey IgG and incubated on ice with increasing concentrations of antibodies for 60 minutes, washed and stained with AF647-conjugated donkey F(ab′)₂ anti-human IgG secondary reagent. Cells are washed, fixed, and analyzed by flow cytometry. Median fluorescent intensity is determined and used as a measure of antibody binding.

T1 sequence (Q9P1W8 29-387): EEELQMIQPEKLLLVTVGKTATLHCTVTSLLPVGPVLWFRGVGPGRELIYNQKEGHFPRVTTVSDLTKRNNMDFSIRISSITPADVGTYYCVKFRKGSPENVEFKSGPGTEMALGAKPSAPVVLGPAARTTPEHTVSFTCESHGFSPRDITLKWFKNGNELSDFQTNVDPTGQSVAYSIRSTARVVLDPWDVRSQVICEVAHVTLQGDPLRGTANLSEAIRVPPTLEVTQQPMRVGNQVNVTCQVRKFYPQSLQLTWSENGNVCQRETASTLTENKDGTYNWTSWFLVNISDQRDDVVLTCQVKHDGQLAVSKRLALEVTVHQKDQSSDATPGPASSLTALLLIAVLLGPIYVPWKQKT
T6 sequence (P78324 other isoform, or with tags, fused parts or gaps): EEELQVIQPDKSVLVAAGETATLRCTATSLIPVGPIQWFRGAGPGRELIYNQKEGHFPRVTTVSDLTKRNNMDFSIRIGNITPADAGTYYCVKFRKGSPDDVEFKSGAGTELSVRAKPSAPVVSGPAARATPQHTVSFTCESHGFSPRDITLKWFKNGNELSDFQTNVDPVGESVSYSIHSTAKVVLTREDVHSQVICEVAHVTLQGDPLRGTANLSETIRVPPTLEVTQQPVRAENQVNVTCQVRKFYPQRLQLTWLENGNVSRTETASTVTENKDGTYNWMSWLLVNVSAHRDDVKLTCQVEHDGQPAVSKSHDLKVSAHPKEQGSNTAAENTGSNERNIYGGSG
T4 sequence (O00241 other isoform, or with tags, fused parts or gaps): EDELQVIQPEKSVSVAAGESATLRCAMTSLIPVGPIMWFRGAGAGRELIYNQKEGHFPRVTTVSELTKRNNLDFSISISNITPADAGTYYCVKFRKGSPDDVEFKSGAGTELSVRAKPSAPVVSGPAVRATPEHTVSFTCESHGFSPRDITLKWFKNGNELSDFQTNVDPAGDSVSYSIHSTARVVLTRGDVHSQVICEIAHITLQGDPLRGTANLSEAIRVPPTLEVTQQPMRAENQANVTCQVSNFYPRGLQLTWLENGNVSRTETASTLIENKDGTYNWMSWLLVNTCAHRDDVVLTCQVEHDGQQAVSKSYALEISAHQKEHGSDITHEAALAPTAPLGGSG

B1: Antibody E22 (antibody, human IgG1, kappa, L234A L235A, V domains shown)
VH: QVQLQESGPGLVKPSETLSLTCTVSGGSIRDYYWSWIRQPPGKGLEWIGFIYYNGRTFYQSSLKSRVTISLDTSKNQFSLKMTSVTAADTAVYYCARVRAYSGIGLDGTDVWGQGTTVTVSS
VL: DIVMTQSPLSLPVTPGEPASISCRSSQSLLYSTGYTYLDWYLQRPGQSPQLLIYGGSSRASGVPDRFSGSGSGTDFTLKISRVEAEDVGVFYCGQALQTPLTFGQGTKVEIKR
As for B1, the binding result in test [1] is recorded as “no binding”; in test [2], “no binding (tested: 1000 nM)”; in test [4] it was “no binding (tested: 1000 nM)”; in test [7] it was “no binding”. Besides, the Kd in test [3] was determined as 3.19 nM; in test [5], 1.47 nM; in test [6], 1.57 nM.
